Patent US20160194394A1 (GOVERNING COUNCIL OF THE UNIVERSITY OF TORONTO, published 2016)

Experiments:
[1] = target: T1, recombinant Frizzled receptor 7 (FZD7) cysteine-rich domain (CRD) fused to the Fc region of human IgG (human, UniProt O75084 33-185); assay: ELISA, 1ug/ml (20nM) Fab
Description: (§1) FIG. 2B is a table depicting the binding of purified Fabs to purified FZD7-Fc measured by ELISA. Fabs purified from 25 ml bacterial cultures were assayed for binding to FZD7-Fc fusion protein (R&D systems) and Fc protein. ELISA plates (384 well) were coated with 2 ug/ml of protein in PBS overnight at four degrees. Wells were blocked with 0.5% BSA/PBS for 1 hour at room temperature, washed three times with 0.05% Tween20/PBS (wash buffer), and then primary dilutions of Fabs in 0.5% BSA/0.05% Tween20/PBS (dilution buffer) were added at indicated concentrations. Fabs were incubated for 1 hour at room temperature, wells were washed six times, and anti-FLAG-HRP (Sigma) was added at 1:5000 in dilution buffer. Secondary antibody was incubated for 45 minutes at room temperature, and wells were washed six times and developed with TMB substrate with an acid stop. The absorbance at 450 nm was read. n.t.=not tested.

[2] = target: T2, Fc control protein; assay: ELISA, 1ug/ml (20nM) Fab
T2 construct: also called Fc protein; control Fc protein
Description: as §1

[3] = target: T1, recombinant Frizzled receptor 7 (FZD7) …; assay: ELISA, 10ug/ml (200nM) Fab
Description: as §1

[4] = target: T2, Fc control protein; assay: ELISA, 10ug/ml (200nM) Fab
Description: as §1

[5] = target: T3, FZD7 receptor expressed on cells (full-length) (UniProt O75084 33-574, limits assumed); assay: flow cytometry, 200 nM Fab, MDA MB 231
T3 construct: whole, on cells; MDA MB 231 cells may carry other Frizzled receptors too; also called full-length FZD7 receptor; endogenous receptor on MDA MB 231 cells
Description: (§2) FIG. 3 is a table depicting the binding of the purified Fabs to cells expressing FZD7 (flow cytometry). Small scale Fabs were assayed for binding to full-length FZD7 receptor to an over-expression line in MDA MB 231 cells. In parallel, Fabs were assayed for binding to endogenous receptor expressed on the MDA MB 231 cells. Cells were harvested using an EDTA solution, blocked in 2% FBS/PBS (stain buffer), and stained with 200 nM Fab for 30 min on ice. Cells were washed two times with stain buffer and incubated with anti-F(ab′)₂-APC secondary antibody (Jackson Immuno) at 1:1000 for 15 minutes on ice. All antibodies were diluted in stain buffer. Cells were washed three times with stain buffer and then fixed with 1% paraformaldehye for analysis by flow cytometry. […] The percent of the cell population within the positive gates is indicated.

[6] = target: T3, FZD7 receptor expressed on cells …; assay: flow cytometry, 200 nM Fab, FZD7 over-expression line (MDA MB 231)
Description: as §2

Binder | OD 450 [1] | OD 450 [2] | OD 450 [3] | OD 450 [4] | % population within the positive gate [5] [%] | % population within the positive gate [6] [%]
E9 (Fab, selection round 2; not the round 3 clone E9 (f29); also called Fzd7-R2-E9) light: DIQMTQSPSSLSASVGDRVTITCRASQSVSSAVAWYQQKPGKAPKLLIYSASSLYSGVPSRFSGSRSGTDFTLTISSLQPEDFATYYCQQSYVGGPFTFGQGTKVEIKRTVAAPSVFIFPPSDSQLKSGTASVVCLLNNFYPREAKVQWKVDNALQSGNSQESVTEQDSKDSTYSLSSTLTLSKADYEKHKVYACEVTHQGLSSPVTKSFNRGECGGS heavy: EVQLVESGGGLVQPGGSLRLSCAASGFNISYYSMHWVRQAPGKGLEWVASISSSYSSTYYADSVKGRFTISADTSKNTAYLQMNSLRAEDTAVYYCARGYWYVYVGWGAYYGPVGMDYWGQGTLVTVSSASTKGPSVFPLAPSSKSTSGGTAALGCLVKDYFPEPVTVSWNSGALTSGVHTFPAVLQSSGLYSLSSVVTVPSSSLGTQTYICNVNHKPSNTKVDKKVEPKSC | 3.15 | 0.05 | 3.22 | 0.07 | 99.4 | 90.7
D7 (Fab, selection round 2; also called Fzd7-R2-D7) light: DIQMTQSPSSLSASVGDRVTITCRASQSVSSAVAWYQQKPGKAPKLLIYSASSLYSGVPSRFSGSRSGTDFTLTISSLQPEDFATYYCQQSYVYYLITFGQGTKVEIKRTVAAPSVFIFPPSDSQLKSGTASVVCLLNNFYPREAKVQWKVDNALQSGNSQESVTEQDSKDSTYSLSSTLTLSKADYEKHKVYACEVTHQGLSSPVTKSFNRGECGGS heavy: EVQLVESGGGLVQPGGSLRLSCAASGFNISYYSMHWVRQAPGKGLEWVAYIYPYSSYTYYADSVKGRFTISADTSKNTAYLQMNSLRAEDTAVYYCARYHGFYGMDYWGQGTLVTVSSASTKGPSVFPLAPSSKSTSGGTAALGCLVKDYFPEPVTVSWNSGALTSGVHTFPAVLQSSGLYSLSSVVTVPSSSLGTQTYICNVNHKPSNTKVDKKVEPKSC | 3.22 | 0.07 | 3.18 | 0.07 | 1.7 | 75.7
C10 (Fab, selection round 2; also called Fzd7-R2-C10) light: DIQMTQSPSSLSASVGDRVTITCRASQSVSSAVAWYQQKPGKAPKLLIYSASSLYSGVPSRFSGSRSGTDFTLTISSLQPEDFATYYCQQSAWWASLFTFGQGTKVEIKRTVAAPSVFIFPPSDSQLKSGTASVVCLLNNFYPREAKVQWKVDNALQSGNSQESVTEQDSKDSTYSLSSTLTLSKADYEKHKVYACEVTHQGLSSPVTKSFNRGECGGS heavy: EVQLVESGGGLVQPGGSLRLSCAASGFNISSYSIHWVRQAPGKGLEWVASIYPYSSYTYYADSVKGRFTISADTSKNTAYLQMNSLRAEDTAVYYCARYSGFAMDYWGQGTLVTVSSASTKGPSVFPLAPSSKSTSGGTAALGCLVKDYFPEPVTVSWNSGALTSGVHTFPAVLQSSGLYSLSSVVTVPSSSLGTQTYICNVNHKPSNTKVDKKVEPKSC | 0.37 | 0.07 | 2.05 | 0.06 | 0.9 | 50.5
D6 (Fab, selection round 2; also called Fzd7-R2-D6) light: DIQMTQSPSSLSASVGDRVTITCRASQSVSSAVAWYQQKPGKAPKLLIYSASSLYSGVPSRFSGSRSGTDFTLTISSLQPEDFATYYCQQFYYSLITFGQGTKVEIKRTVAAPSVFIFPPSDSQLKSGTASVVCLLNNFYPREAKVQWKVDNALQSGNSQESVTEQDSKDSTYSLSSTLTLSKADYEKHKVYACEVTHQGLSSPVTKSFNRGECGGS heavy: EVQLVESGGGLVQPGGSLRLSCAASGFNISYSSMHWVRQAPGKGLEWVASIYSSYSYTSYADSVKGRFTISADTSKNTAYLQMNSLRAEDTAVYYCARSYGPWAPGWAAYWGGYGMDYWGQGTLVTVSSASTKGPSVFPLAPSSKSTSGGTAALGCLVKDYFPEPVTVSWNSGALTSGVHTFPAVLQSSGLYSLSSVVTVPSSSLGTQTYICNVNHKPSNTKVDKKVEPKSC | 2.98 | 0.06 | 3.09 | 0.12 | 35.3 | 84.3
E5 (Fab, selection round 2; also called Fzd7-R2-E5) light: DIQMTQSPSSLSASVGDRVTITCRASQSVSSAVAWYQQKPGKAPKLLIYSASSLYSGVPSRFSGSRSGTDFTLTISSLQPEDFATYYCQQASWYPITFGQGTKVEIKRTVAAPSVFIFPPSDSQLKSGTASVVCLLNNFYPREAKVQWKVDNALQSGNSQESVTEQDSKDSTYSLSSTLTLSKADYEKHKVYACEVTHQGLSSPVTKSFNRGECGGS heavy: EVQLVESGGGLVQPGGSLRLSCAASGFNIYSSSMHWVRQAPGKGLEWVASIYSSYGYTSYADSVKGRFTISADTSKNTAYLQMNSLRAEDTAVYYCARPGYWGYYWGAYGMDYWGQGTLVTVSSASTKGPSVFPLAPSSKSTSGGTAALGCLVKDYFPEPVTVSWNSGALTSGVHTFPAVLQSSGLYSLSSVVTVPSSSLGTQTYICNVNHKPSNTKVDKKVEPKSC | 3.17 | 0.07 | 3.17 | 0.06 | 6.3 | 86.2
G4 (Fab, selection round 2; same four CDRs as Fzd7-R2-B2 (f22); also called Fzd7-R2-G4) light: DIQMTQSPSSLSASVGDRVTITCRASQSVSSAVAWYQQKPGKAPKLLIYSASSLYSGVPSRFSGSRSGTDFTLTISSLQPEDFATYYCQQAYAYLITFGQGTKVEIKRTVAAPSVFIFPPSDSQLKSGTASVVCLLNNFYPREAKVQWKVDNALQSGNSQESVTEQDSKDSTYSLSSTLTLSKADYEKHKVYACEVTHQGLSSPVTKSFNRGECGGS heavy: EVQLVESGGGLVQPGGSLRLSCAASGFNISYSSMHWVRQAPGKGLEWVASISSSYGYTYYADSVKGRFTISADTSKNTAYLQMNSLRAEDTAVYYCARSGGHFYYWYVAAAMDYWGQGTLVTVSSASTKGPSVFPLAPSSKSTSGGTAALGCLVKDYFPEPVTVSWNSGALTSGVHTFPAVLQSSGLYSLSSVVTVPSSSLGTQTYICNVNHKPSNTKVDKKVEPKSC | 3.15 | 0.05 | 3.17 | 0.07 | 5.1 | 85.4
B10 (Fab, selection round 2; not the round 3 clone B10 (f30); also called Fzd7-R2-B10) light: DIQMTQSPSSLSASVGDRVTITCRASQSVSSAVAWYQQKPGKAPKLLIYSASSLYSGVPSRFSGSRSGTDFTLTISSLQPEDFATYYCQQGSVWLFTFGQGTKVEIKRTVAAPSVFIFPPSDSQLKSGTASVVCLLNNFYPREAKVQWKVDNALQSGNSQESVTEQDSKDSTYSLSSTLTLSKADYEKHKVYACEVTHQGLSSPVTKSFNRGECGGS heavy: EVQLVESGGGLVQPGGSLRLSCAASGFNISSSSMHWVRQAPGKGLEWVASISSSSSYTYYADSVKGRFTISADTSKNTAYLQMNSLRAEDTAVYYCARYGSHWSPSYSGWYYYSYALDYWGQGTLVTVSSASTKGPSVFPLAPSSKSTSGGTAALGCLVKDYFPEPVTVSWNSGALTSGVHTFPAVLQSSGLYSLSSVVTVPSSSLGTQTYICNVNHKPSNTKVDKKVEPKSC | 2.82 | 0.06 | 2.99 | 0.06 | 35 | 88.4
F12 (Fab, selection round 2; also called Fzd7-R2-F12) light: DIQMTQSPSSLSASVGDRVTITCRASQSVSSAVAWYQQKPGKAPKLLIYSASSLYSGVPSRFSGSRSGTDFTLTISSLQPEDFATYYCQQAYAPFTFGQGTKVEIKRTVAAPSVFIFPPSDSQLKSGTASVVCLLNNFYPREAKVQWKVDNALQSGNSQESVTEQDSKDSTYSLSSTLTLSKADYEKHKVYACEVTHQGLSSPVTKSFNRGECGGS heavy: EVQLVESGGGLVQPGGSLRLSCAASGFNISYSYMHWVRQAPGKGLEWVASIYSSYSYTSYADSVKGRFTISADTSKNTAYLQMNSLRAEDTAVYYCARSSAWFGHAGFGGAMDYWGQGTLVTVSSASTKGPSVFPLAPSSKSTSGGTAALGCLVKDYFPEPVTVSWNSGALTSGVHTFPAVLQSSGLYSLSSVVTVPSSSLGTQTYICNVNHKPSNTKVDKKVEPKSC | 1.05 | 0.08 | 3.11 | 0.06 | 1.4 | 59.9
